This note sets out measurements from paper PMC4564863.

One data set addresses InbR (Rv0275c) (Mycobacterium tuberculosis, UniProt L7N6A2). Description: biochemical.
In another data set the target is T1, InbR (Mycobacterium tuberculosis H37Rv, UniProt L7N6A2 1-241).
T1 sequence: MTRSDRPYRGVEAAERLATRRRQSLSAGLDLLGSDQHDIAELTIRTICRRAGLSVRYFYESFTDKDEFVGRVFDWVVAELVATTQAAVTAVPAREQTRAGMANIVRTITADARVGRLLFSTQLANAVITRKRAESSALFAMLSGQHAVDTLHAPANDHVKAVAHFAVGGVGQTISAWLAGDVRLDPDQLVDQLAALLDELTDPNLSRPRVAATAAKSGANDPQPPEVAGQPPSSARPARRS
Description: EMSA; 0.25-2 uM InbR. The settings on record: protein: recombinant; tags: His6 (pET28a, N-terminal); label: FITC. Background: In EMSA bound probe runs differently from free probe, usually more slowly.

As usually defined, the Kd is the equilibrium constant for the complex coming apart. A higher Kd goes with lower affinity. For `NNC(=O)c1ccncc1` [INH, Isoniazid], on InbR (Rv0275c), the affinity, expressed as Kd, was 720 nM.

B1: Rv0275cp4 (dsDNA)
DNA 1: TGCCGCTAATTATTTATTTGCCGTGGGAATGATATTGGCCGG
DNA 2: CCGGCCAATATCATTCCCACGGCAAATAAATAATTAGCGGCA
For the molecule B1, the binding result in the data set with InbR is “no binding”.

B2: Rv0275cp1 (dsDNA)
DNA 1: TGCCGCTAATTATGGAAACACCTGTATCCTGATATTGGCCGG
DNA 2: CCGGCCAATATCAGGATACAGGTGTTTCCATAATTAGCGGCA
Take B2: in the data set with InbR, the binding result is given as “binds”.
